Source: paper PMC9073949 (Crystal Growth & Design, 2022)
Where “and” joins values, the source holds several entries; their conditions need not be identical. Equal entries are not always repeated. Where two headings read alike, the source gives them in different places.

How the values were obtained:
[1] = for solubility: equilibrium with crystals, UV 280 nm
Protocol: (§1) Precise temperature control was achieved by using incubators held at a constant temperature. Citric acid buffer (0.1 M) was prepared at different pH levels by varying the ratio between citric acid and tri-sodium citrate. The pH was determined using a Jenway 4330 pH and conductivity meter (Jenway, UK) with an instrument resolution of around ±0.02 pH units. Zinc sulfate (ZnSO4), zinc chloride (ZnCl2), or zinc acetate (ZnAc) were dissolved in citric acid buffer as a zinc salt stock solution. […] Each experimental condition was repeated multiple times, and the error bars represent the deviation between these repetitions. The desupersaturation (crystallization occurs and the solution concentration decreases) was monitored by measuring the UV–vis absorption at a wavelength of 280 nm with a NanoDrop One^c microvolume UV–vis spectrophotometer (Thermo Fischer Scientific, USA). A sample as small as 10–20 μL was withdrawn from the crystallizer (Eppendorf tube) and was centrifuged (6000 rpm, 10–20 min). […] An extinction coefficient of 1.04 mL·mg^–1·cm^–1 was utilized.[32] Multiple dilutions for every sample were made to minimize dilution errors. The crystal slurry which remained in the centrifuged sample was observed underneath an optical microscope (CX-41, Olympus, Japan) to confirm that the decrease in concentration is because of crystallization and not due to other phenomena, such as amorphous precipitation.
(§2) This lag time is commonly termed as induction time.[33] We found the induction time graphically by finding the intersection between the tangents of the point of inflection (tangent of the biggest gradient after the solution concentration dropped substantially) and the initial concentration (which stays constant until the solution concentration drops substantially). A graphical visualization and a detailed definition and justification of induction time can be found in the Supporting Information.
To ensure that the true solubility concentration was measured, the samples were gently mixed frequently with pipettes once the crystallization experiment had finished. […] Once the concentration had stabilized, that is, no significant change over multiple days, this concentration was taken as solubility.

[2] = Static light scattering (Debye plot): second osmotic virial coefficient B22 and derived activity coefficient; type: physicochemical; details: for B22 (second virial coefficient): SLS Debye plot, ≤ 3 mg·mL^–1, 24.0 °C
Text: The procedure was identical to the DLS experiments, but instead of disposable cuvettes, a quartz cuvette was utilized. After each run, the quartz cuvette was carefully washed with deionized water, ethanol, and IPA followed by drying to remove any impurities and dust before further usage for the next sample. A solvent refractive index of 1.3304 and a refractive index increment of Δn/Δc = 0.183 were utilized.[34] The second virial coefficient was obtained by using Debye plots at low protein concentration (≤ 3 mg·mL^–1).

[3] = Insulin crystallization kinetics (desupersaturation, induction time, crystal yield); type: physicochemical
Protocol: as §1, §2
The crystal yield was calculated to evaluate the performance of crystallization. […] The yield can be either expressed in terms of concentration or supersaturation ratio, which is St = ct/c* for an ideal solution with […] at time zero. [drawing 2] 2

[4] = Dynamic light scattering: diffusion coefficient and polydispersity of insulin; type: physicochemical; details: DLS
Protocol: The solutions were prepared identically to the crystallization solutions which have been described previously. The solutions were filtered with a 0.22 μm pore size filter into a disposal cuvette (polystyrene) which then was loaded into a Zetasizer μV (Malvern, UK).

[5] = pH 6.0, St=0 = 10.0, ZnSO4, 24.0 °C
[6] = pH 6.0, initial insulin 3 mg·mL^–1, ZnSO4 […], 24.0 °C

Human insulin
solubility ([1]; pH 6.0, ZnSO4, 73 mM citric buffer, 7 mM HEPES, 24.0 °C): 0.14 mg·mL^–1 | increase in solubility ([1]; pH 6.0 to pH 6.7, ZnSO4, 24.0 °C): 5 fold | solubility ([1]; pH 6.5, ZnSO4, 73 mM citric buffer, 7 mM HEPES, 24.0 °C): 0.41 mg·mL^–1 | increase in solubility ([1]; pH 6.5 to pH 6.7 (0.2 pH units), ZnSO4, 24.0 °C): roughly 70% | insulin equilibrium concentration (solubility c*) ([1]; pH 6.7, ZnSO4 (SO4^2– anion), thermodynamic, equilibrium with crystals after crystallization, 73 mM citric buffer, 7 mM HEPES, 24.0 °C, monitored up to 4 weeks, UV 280 nm of centrifuged supernatant): 0.70 mg·mL^–1 and 0.70 ± 0.03 mg·mL^–1 | B22 (second virial coefficient) ([2]; pH 6.0): –4.23 × 10^–4 mL·mol·g^–2 | B22 (second virial coefficient) ([2]; pH 6.2): –2.47 × 10^–4 mL·mol·g^–2 | B22 (second virial coefficient) ([2]; pH 6.5): –4.18 × 10^–4 mL·mol·g^–2 | B22 (second virial coefficient) ([2]; pH 6.7): –4.0 × 10^–4 mL·mol·g^–2 | γ (activity coefficient) ([2]; pH 6.7, calculated from B22 with eq 4, 24.0 °C): 0.96 | desupersaturation rate after a yield of 85% was achieved ([3]; St=0 = 10.0, pH 6.0): 0.03 h^–1 | desupersaturation rate after a yield of 85% was achieved ([3]; St=0 = 10.0, pH 6.2): 0.01 h^–1 | desupersaturation rate after a yield of 85% was achieved ([3]; St=0 = 10.0, pH 6.5): 0.07 h^–1 | desupersaturation rate after a yield of 85% was achieved ([3]; St=0 = 10.0, pH 6.7): 0.02 h^–1 | t50% (time required to achieve a yield of 50%) ([3]; pH 6.0, St=0 = 5.6): 128.0 h | induction time ([3]; pH 6.0, St=0 = 5.6, ZnSO4, 24.0 °C): 81.0 h | crystallization rate ΔS/Δt [3, 5]: 0.18 h^–1 | induction time [3, 5]: 26.5 h | time after which the concentration drops [3, 6]: 4.0 h | time to reach quasi-equilibrium concentration [3, 6]: roughly 20.0 h | reduction in induction time ([3]; pH 6.0, initial supersaturation ratio increased from 5.6 to 10.0): 67% | decrease in induction time ([3]; pH 6.0 to pH 6.7 at St=0 = 7.4): roughly 81% | decrease in induction time ([3]; pH 6.0 to pH 6.7 at St=0 = 10.0): ~88% | reduction in induction time ([3]; pH 6.5, initial supersaturation ratio increased from 5.6 to 10.0): 77% | crystallization rate ΔS/Δt ([3]; pH 6.7, St=0 = 5.7, 12.0 h to 41.0 h, ZnSO4, 24.0 °C): 0.13 h^–1 | crystallization rate ΔS/Δt ([3]; pH 6.7, St=0 = 10.0, 1.3 h to 26.0 h, ZnSO4, 24.0 °C): 0.32 h^–1 | time to reach quasi-equilibrium concentration ([3]; pH 6.7, initial insulin 3 mg·mL^–1, ZnSO4 […], 24.0 °C): ~80.0 h | diffusion coefficient ([4]; pH 6.0, lower end of insulin concentrations probed, 24.0 °C): 0.99 × 10^–6 cm^2·s^–1 | diffusion coefficient ([4]; pH 6.0, upper end of insulin concentrations probed, 24.0 °C): 0.86 × 10^–6 cm^2·s^–1 | diffusion coefficient ([4]; pH 6.7, Ac^2– anion, cins = 3 mg·mL^–1, 24.0 °C): 0.87 ± 0.1·10^–3 10^–6 cm^2·s^–1 | diffusion coefficient ([4]; pH 6.7, Cl^– anion, cins = 3 mg·mL^–1, 24.0 °C): 0.87 ± 0.5·10^–3 10^–6 cm^2·s^–1
